Results published in the DeepSol protein solubility set.

test: soluble on expression in E. coli; label from the status in PepcDB or PDB records

| Sequence | soluble on expression in E. coli |
| --- | --- |
| ETLPLMMFTANGGGYLTYANKWLKDYFGMLEIQSGKTEWTSLVNSSDTKQVRDEWEKAQTNQTHFRAQAKLKSKTAESALWHLISLVPVKNDLNQITSWTGFFVDI | not soluble |
| EVQLLESGGGLVQPGGSLRLSAAASGFTFSTFSMNWVRQAPGKGLEWVSYISRTSKTIYYADSVKGRFTISRDNSKNTLYLQMNSLRAEDTAVYYVARGRFFDYWGQGTLVTVS | soluble |
| EVQLVESGGGLVQPGRSLRLSCAASGFTFDDYAMHWVRQAPGKGLEWVSGISWNSGSIGYADSVKGRFTISRDNAKNSLYLQMNSLRAEDTAVYYCARGRGFHYYYYGMDIWGQGTTVTVSSASTKGPSVFPLAPSSKSTSGGTAALGCLVKDYFPEPVTVSWNSGALTSGVHTFPAVLQSSGLYSLSSVVTVPSSSLGTQTYICNVNHKPSNTKVDKKVEPK | soluble |
| EVVVRRLSDPVELEEAVEVHARAWGSRDYREVVAPHILRALVDNGGLVLGAFVGGRMVGASYGWFVGCGEGRYFYSHATGVEEGYKYRGVGFALKARQREEVLREGVSLAKWTFDPLQSLNTRFNLAKLGAVYRVYKVNYYGEMTDEINRGLGSDRVVAEWWL | not soluble |
| FDASNFKDFSSIASASSSWQNQSGSTMIIQVDSFGNVSGQYVNRAQGTGCQNSPYPLTGRVNGTFIAFSVGWNNSTENCNSATGWTGYAQVNGNNTEIVTSWNLAYEGGSGPAIEQGQDTFQYVPTTENKSLLKD | soluble |
| FEQEGRDVALDYRWMPYKRISTNLKKALIASEDARFAGHGGFDWGGIQNAIRRNRNSGKVKAGGSTISQQLAKNLFLNESRSYIRKGEEAAITAMMEAVTDKDRIFELYLNSIEWHYGVFGAEAASRYFYQIPAAKLTKQQAAKLTARVPAPLYYADHPKSKRLRNKTNIVLKRMGSAELPESDTD | not soluble |
| FGVWVLVPRSFPRCVWFQRSMAVVIRLQGLPIVAGTMDIRHFFSGLTIPDGGVHIVGGELGEAFIVFATDEDARLGMMRTGGTIKGSKVTLLLSSKTEMQNMIELSRRRFETANLDIPPANASRSGPPPSSGMSSRVNLPTTVSNFNNPSPSVVTATTSVHESNKNIQTFSTASVGTAPPNMGASFGSPTFSSTVPSTASPMNTVPPPPIPPIPAMPSLPPMPSIPPIPVPPPVPTLPPVPPVPPIPPVPSVPPMTPLPPMSGMPPLNPPPVAPLPAGMNGSGAPMNLNNNLNPMFLGPLNPVNPIQMNSQSSVKPLPINPDDLYVSVHGMPFSAMENDVRDFFHGLRVDAVHLLKDHVGRNNGNGLVKFLSPQDTFEALKRNRMLMIQRYVEVSPATERQWVAAGGHITFKQNMGPSGQTHPPPQTLPRSKSPSGQKRSRSRSPHEAGFCVYLKGLPFEAENKHVIDFFKKLDIVEDSIYIAYGPNGKATGEGFVEFRNEADYKAALCRHKQYMGNRFIQVHPITKKGMLEKIDMIRKRLQNFSYDQREMILNPEGDVNSAKVCAHITNIPFSITKMDVLQFLEGIPVDENAVHVLVDNNGQGLGQALVQFKNEDDARKSERLHRKKLNGREAFVHVVTLEDMREIEKNPPAQGKKGLKMPVPGNPAVPGMPNAGLPGVGLPSAGLPGAGLPSTGLPGSAITSAGLPGAGMPSAGIPSAGGEEHAFLTVGSKEANNGPPFNFPGNFGGSNAFGPPIPPPGLGGGAFGDARPGMPSVGNSGLPGLGLDVPGFGGGPNNLSGPSGFGGGPQNFGNGPGSLGGPPGFGSGPPGLGSAPGHLGGPPAFGPGPGPGPGPGPIHIGGPPGFASSSGKPGPTVIKVQNMPFTVSIDEILDFFYGYQVIPGSVCLKYNEKGMPTGEAMVAFESRDEATAAVIDLNDRPIGSRKVKLVLG | soluble |
| FHLTTRNGEPHMIVSRQEKGKSLLFKTEDGVNMCTLMAMDLGELCEDTITYKCPLLRQNEPEDIDCWCNSTSTWVTYGTCT | soluble |
| FHQISSRIQKSIDVDEVLRLCAEGLHDVLGYERVNILMADTARTSLSFVAAVGTADFNPAGVVLPLDQRGGVITKCFTDRQVYMIDDVSAYPTDFRLQSPYDAIRALRSKSFVICPIVVKGEAIGVFAVDNRSSRRSLNDTDVDTIKLFADQASSAIVRINLLKAI | soluble |
| FLGELLIDLPLPVDTPSVDQCEKCRACITSCPTQAIVEDKVVDARRCISYLTIEFDGVIPEEFRKPMGNRIYGCDDCQLVCPWNRYADVTEQEDFHRRESFHNPDLVE | not soluble |
| FLRDAPKHLNPDGEIRLIISDLAEHLHLRPSDFLDKAFAQAGLRVADMMKTKPKHKKAANPSDPLAFARTRETTFLYRLKKA | not soluble |
